Measurements from article PMC10092196 (Human Mutation, 2022).
Numbering of substitutions follows the chain as printed. In names and notes the source's numbering stands.

Key:
SEC = target: the molecule itself; test: SEC
[1] = target: the molecule itself; test: SEC with right-angle light scattering

B1: full-length wild-type human PUS3 protein (pseudouridine synthase 3) (enzyme, UniProt Q9BZE2 1-481, looked up)
chain: MAYNDTDRNQTEKLLKRVRELEQEVQRLKKEQAKNKEDSNIRENSAGAGKTKRAFDFSAHGRRHVALRIAYMGWGYQGFASQENTNNTIEEKLFEALTKTRLVESRQTSNYHRCGRTDKGVSAFGQVISLDLRSQFPRGRDSEDFNVKEEANAAAEEIRYTHILNRVLPPDIRILAWAPVEPSFSARFSCLERTYRYFFPRADLDIVTMDYAAQKYVGTHDFRNLCKMDVANGVINFQRTILSAQVQLVGQSPGEGRWQEPFQLCQFEVTGQAFLYHQVRCMMAILFLIGQGMEKPEIIDELLNIEKNPQKPQYSMAVEFPLVLYDCKFENVKWIYDQEAQEFNITHLQQLWANHAVKTHMLYSMLQGLDTVPVPCGIGPKMDGMTEWGNVKPSVIKQTSAFVEGVKMRTYKPLMDRPKCQGLESRIQHFVRRGRIEHPHLFHEEETKAKRDCNDTLEEENTNLETPTKRVCVDTEIKSII
stoichiometry N (SEC): 2

B2: full-length human PUS3 D118A mutant (catalytic site) (enzyme, UniProt Q9BZE2 1-481, looked up)
chain: B1 chain with D118A
binding result (SEC): binds

B3: full-length human PUS3 Y71C mutant (enzyme, UniProt Q9BZE2 1-481, looked up)
chain: B1 chain with Y71C
stoichiometry N [1]: 2
